Target: T1, purified, catalytically-active recombinant human p85α:p110α heterodimer (human, UniProt P27986 1-724; P42336 1-1068)
T1 construct: human PI3K regulatory subunit p85α; human PI3K catalytic subunit p110α; also called recombinant human PI3K; purified recombinant PI3K protein; source: bought: SignalChem (co-expression in Sf9 cells, >90% pure)
Assay: pull-down; purified recombinant human PI3K (1 µg) with GST or GST-Ad9 E4-ORF1 on glutathione-sepharose beads; immunoblot with p85α and p110α antibodies
Conditions: both partners purified

T1 sequence (P27986 whole entry, chain 1 of 2): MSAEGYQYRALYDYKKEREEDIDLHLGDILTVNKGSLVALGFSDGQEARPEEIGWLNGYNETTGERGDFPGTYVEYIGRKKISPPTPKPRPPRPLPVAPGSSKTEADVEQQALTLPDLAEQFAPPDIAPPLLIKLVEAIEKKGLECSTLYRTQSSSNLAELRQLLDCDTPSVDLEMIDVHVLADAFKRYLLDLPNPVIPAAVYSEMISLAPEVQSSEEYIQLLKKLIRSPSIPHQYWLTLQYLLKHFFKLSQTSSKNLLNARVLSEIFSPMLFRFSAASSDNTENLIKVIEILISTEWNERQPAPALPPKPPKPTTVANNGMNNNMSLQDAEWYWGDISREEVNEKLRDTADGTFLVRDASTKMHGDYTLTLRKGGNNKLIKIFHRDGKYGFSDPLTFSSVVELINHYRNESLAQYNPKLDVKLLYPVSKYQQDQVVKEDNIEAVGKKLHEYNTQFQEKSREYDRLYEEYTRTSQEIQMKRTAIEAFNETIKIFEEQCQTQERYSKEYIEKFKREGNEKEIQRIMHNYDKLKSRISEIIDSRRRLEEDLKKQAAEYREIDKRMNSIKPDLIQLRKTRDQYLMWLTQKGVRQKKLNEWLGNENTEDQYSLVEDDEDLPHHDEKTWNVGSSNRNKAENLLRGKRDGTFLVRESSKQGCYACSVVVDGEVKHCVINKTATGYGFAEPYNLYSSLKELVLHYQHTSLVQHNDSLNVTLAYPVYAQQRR
T1 sequence (P42336 whole entry, chain 2 of 2): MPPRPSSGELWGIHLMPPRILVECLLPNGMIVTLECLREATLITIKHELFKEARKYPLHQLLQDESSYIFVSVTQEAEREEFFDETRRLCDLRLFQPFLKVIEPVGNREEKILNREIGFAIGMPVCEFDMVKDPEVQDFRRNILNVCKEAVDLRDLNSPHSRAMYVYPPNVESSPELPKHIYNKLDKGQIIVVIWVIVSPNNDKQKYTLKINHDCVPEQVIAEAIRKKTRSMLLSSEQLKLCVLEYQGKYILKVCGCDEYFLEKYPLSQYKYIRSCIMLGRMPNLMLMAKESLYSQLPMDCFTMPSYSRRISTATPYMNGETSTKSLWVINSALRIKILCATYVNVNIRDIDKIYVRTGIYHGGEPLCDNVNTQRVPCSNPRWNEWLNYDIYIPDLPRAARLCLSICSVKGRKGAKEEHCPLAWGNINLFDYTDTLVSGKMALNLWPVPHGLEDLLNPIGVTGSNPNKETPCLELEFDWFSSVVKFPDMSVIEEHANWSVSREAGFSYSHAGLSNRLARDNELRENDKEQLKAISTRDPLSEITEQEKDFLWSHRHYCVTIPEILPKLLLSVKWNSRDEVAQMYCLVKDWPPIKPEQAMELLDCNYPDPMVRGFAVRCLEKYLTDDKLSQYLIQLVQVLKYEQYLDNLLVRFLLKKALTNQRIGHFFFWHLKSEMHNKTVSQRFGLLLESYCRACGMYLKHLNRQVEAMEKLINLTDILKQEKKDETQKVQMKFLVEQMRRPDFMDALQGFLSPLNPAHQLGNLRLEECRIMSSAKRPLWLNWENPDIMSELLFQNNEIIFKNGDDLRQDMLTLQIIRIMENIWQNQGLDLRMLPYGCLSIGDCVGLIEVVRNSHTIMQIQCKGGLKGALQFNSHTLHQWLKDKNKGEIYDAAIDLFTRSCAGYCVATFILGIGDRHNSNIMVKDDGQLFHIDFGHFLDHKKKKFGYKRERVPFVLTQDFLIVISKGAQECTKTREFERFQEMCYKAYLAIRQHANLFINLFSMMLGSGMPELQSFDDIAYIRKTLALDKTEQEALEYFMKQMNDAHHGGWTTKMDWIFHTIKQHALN

B1: GST-Ad9 E4-ORF1 fusion protein (natural protein)
chain: MAESLYAFIDSPGGIAPVQEGTSNRYTFFCPESFHIPPHGVVLLHLKVSVLVPTGYQGRFMALNDYHARDILTQSDVIFAGRRQELTVLLFNHTDRFLYVRKGHPVGTLLLERVIFPSVKIATLV
notes: Human adenovirus type 9 (Ad9) E4-ORF1 protein, wild type; also called GST-E4-ORF1; glutathione S-transferase (GST) fused to Ad9 E4-ORF1; source: bacterially expressed fusion protein (plasmid pGEX-2TK with wt E4-ORF1 cDNA), on glutathione-sepharose beads
binding result: binds

Source: publication PMC4006922, “The Human Adenovirus E4-ORF1 Protein Subverts Discs Large 1 to Mediate Membrane Recruitment and Dysregulation of Phosphatidylinositol 3-Kinase” (PLoS Pathogens, 2014)
